Results: patent publication US10792857B2, “Polymeric microneedles and rapid additive manufacturing of the same” (The University of North Carolina at Chapel Hill, priority 2015, dated 2020)

B1: OVA-647: Fluorescently labeled (Alexa Fluor 647) model vaccine antigen ovalbumin, incorporated into PAA cylinders (protein, UniProt P01012 2-386, looked up)
Ovalbumin: GSIGAASMEFCFDVFKELKVHHANENIFYCPIAIMSALAMVYLGAKDSTRTQINKVVRFDKLPGFGDSIEAQCGTSVNVHSSLRDILNQITKPNDVYSFSLASRLYAEERYPILPEYLQCVKELYRGGLEPINFQTAADQARELINSWVESQTNGIIRNVLQPSSVDSQTAMVLVNAIVFKGLWEKAFKDEDTQAMPFRVTEQESKPVQMMYQIGLFRVASMASEKMKILELPFASGTMSMLVLLPDEVSGLEQLESIINFEKLTEWTSSNVMEERKIKVYLPRMKMEEKYNLTSVLMAMGITDVFSSSANLSGISSAESLKISQAVHAAHAEINEAGREVVGSAEAGVDAASVSEEFRADHPFLFCIKHIATNAVLFFGRCVSP
modifications: Alexa Fluor 647 label
notes: Fluorescently labeled (Alexa Fluor 647) model vaccine antigen ovalbumin, incorporated into PAA cylinders

How the values were obtained:
[1] = value used for insulin loading calculation; cited from earlier work
[2] = Insulin release from CLIP fabricated PAA cylinders dissolved in water (sandwich ELISA); format: physicochemical
Description: Insulin (Sigma) was incorporated into test parts with identical dimensions described in FIG. 22A using CLIP and a resin containing 87.1 wt % acrylic acid monomer, 2.52 wt % DPO photo initiator, 10.4 wt % acetic acid, 0.17 wt % human insulin. Resin of an identical composition, excluding the […] insulin, was used as a negative control for insulin incorporation and release. Parts were fabricated using continuous printing on the CLIP7 apparatus (Carbon 3D) with a drawspeed of 100 mm/hr and 14.5 mW/cm2 light intensity. CLIP fabricated PAA parts were dissolved in 2 mL of water and the solution was then centrifuged at 20,000×g for 10 minutes to remove any insoluble material and insulin release was quantified using an sandwich ELIS A method (3A6 anti-insulin coating antibody, 8E2-HRP detection antibody from AbCam) combined with and an insulin standard curve. Insulin was readily detected in dissolved CLIP fabricated PAA cylinders made with insulin containing resin (FIG. 25) with an average of 0.5 unit/mL insulin (1 unit/cylinder), which was close to the theoretical insulin loading levels of 1 unit per cylinder based on PAA cylinder dry weight (20-22 mg). No insulin was detected in the supernatant of dissolved vehicle control cylinders (FIG. 25), validating the specificity of the ELISA-based insulin assay. […]

[3] = OVA-647 release from CLIP fabricated PAA cylinders dissolved in water (fluorescence plate reader); format: physicochemical; details: PAA cylinder from resin with 0.01 wt % OVA-647, dissolved in 2 mL of water, versus vehicle control cylinders
Description: Fluorescently labeled (Alexa Fluor® 647) model vaccine antigen ovalbumin (referred to as OVA-647) was incorporated into a PAA matrix using CLIP and a resin containing […] (Sigma), 2.3 wt % DPO photo initiator (Sigma), […], 0.01 wt % OVA-647 (Invitrogen). Resin of an identical composition, excluding the 0.01 wt % OVA-647, was used as a negative control for OVA-647 incorporation. The shape of the CLIP fabricated test parts was cylindrical with 3 mm diameter×3 mm height, containing a hollowed out center 1.5 mm diameter (FIG. 22A and FIG. 22B). Parts were fabricated using continuous printing on the CLIP7 apparatus (Carbon 3D) with a drawspeed of 100 mm/hr and 8.4 mW/cm2 light intensity. OVA-647 incorporation into CLIP fabricated PAA parts was confirmed using microscopy (FIG. 22C). The OVA-647 and vehicle control PAA cylinders were dissolved in 2 mL of water and the solution was then centrifuged at 20,000×g for 10 minutes to remove any insoluble material and OVA-647 release was measured using a fluorescence plate reader.
Referring to FIG. 23, vehicle PAA cylinders (containing 8.97 wt % water) or OVA-647 resin ([…] in water) were tested. Each bar represents an independent cylinder dissolved in 2 mL of water and the supernatant was measured for OVA-647 fluorescence. Values were normalized to a standard curve of soluble OVA-647. […]

| Molecule | max solubility [1] | insulin release per cylinder ([2]; PAA cylinder dissolved in 2 mL of water) | insulin release, average concentration in dissolved cylinder solution ([2]; PAA cylinder from resin with 0.17 wt % human insulin, dissolved in 2 mL of water) | OVA-647 release (fluorescence in supernatant) [3] |
| --- | --- | --- | --- | --- |
| Insulin: Human insulin (Sigma) incorporated into CLIP fabricated PAA cylinders | 10000 µg/mL | 1 unit/cylinder | 0.5 unit/mL |  |
| B1 |  |  |  | readily detected above background florescence levels |
